Earlier results in PMC8494837.

Molecular target: Ubiquitin (Homo sapiens) (UniProt P0CG47)

Chain of CXCR4 (P61073 whole entry): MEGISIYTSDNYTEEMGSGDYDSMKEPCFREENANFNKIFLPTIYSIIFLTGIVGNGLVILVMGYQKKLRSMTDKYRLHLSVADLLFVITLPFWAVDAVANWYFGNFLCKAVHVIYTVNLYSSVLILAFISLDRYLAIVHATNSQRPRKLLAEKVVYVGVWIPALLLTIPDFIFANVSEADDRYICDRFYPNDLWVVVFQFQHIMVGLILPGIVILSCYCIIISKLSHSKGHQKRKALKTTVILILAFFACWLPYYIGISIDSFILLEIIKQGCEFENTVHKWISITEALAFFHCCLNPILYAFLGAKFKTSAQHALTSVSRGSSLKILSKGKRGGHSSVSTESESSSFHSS

- Kd: 84 nM
Substance: CXCR4 (from UniProt P61073)
